According to patent US9618524B2, “Method, composition, isolation and identification of a plaque particle and related biomarker” (Plaxgen Inc., priority 2012, dated 2017):

Tests used:
Experiment in all cases: Mass spectroscopy proteomics, semi-quantitative binding affinity of serum proteins (plaqueproteome, Table 2)
Details in all cases: higher number = stronger affinity
Tau plaque particles = tested on: Tau plaque particles; design: species or system human
In short: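 Serum or plasma proteins captured on Thioflavin S-labelled Tau plaque particles (Tau-74, Tau-275 oligomers preformed in PBS at 37° C for 2 h; 1 h co-incubation at 37° C) were isolated by FACS sorting, then tryptically digested and identified by MS/MS (Sequest, human UniProt, strict trypsin).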

[1] = molecular target: T1, Abeta-42 plaque particles (Homo sapiens, UniProt P05067)
T1 construct: Abeta 1-42
In short: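 AD patient serum or plasma (50% in PBS) was incubated with Abeta-42 aggregates (30 μg) for 1 h at 37 °C, then stained with Thioflavin S for 30 min. Labeled particles were FACS-sorted, trypsin/Lys-C digested overnight and analyzed by MS/MS. Sequest searched human UniProt; Scaffold/Protein Prophet validated the identifications.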

[2] = molecular target: T2, alpha-synuclein plaque particles (Homo sapiens, UniProt P37840)
T2 construct: 140 amino acids polypeptide
In short: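 AD-subject plasma or serum (800 μL of 50%) mixed with 30 μg preformed alpha-synuclein aggregates for 1 h at 37 °C; Thioflavin S-positive particles isolated by flow sorting. After reduction, acrylamide alkylation and overnight tryptic digestion, serum proteins identified by MS/MS with Sequest and Scaffold.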

[3] = tested on: High Density cholesterol (Chl Large) plaque particles; design: species or system human
In short: (§1)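 Atherosclerotic plasma/serum (50% in PBS) + 30 μg cholesterol aggregates, 1 hr 37° C; FACS gates split low- vs high-density particles. Acetone precipitation, urea/ProteaseMAX, acrylamide alkylation, overnight Trypsin/Lys C at 37° C; Sequest search, Scaffold/Protein Prophet validation.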

[4] = tested on: Low density cholesterol (Chl small) plaque particles; design: species or system human
In short: as §1

| Molecule | Semi-quantitative analysis of proteins binding to different plaque particles: Tau (Tau plaque particles) | Semi-quantitative analysis of proteins binding to different plaque particles: Abeta-42 [1] | Semi-quantitative analysis of proteins binding to different plaque particles: Synuclein [2] | Semi-quantitative analysis of proteins binding to different plaque particles: Chl Large [3] | Semi-quantitative analysis of proteins binding to different plaque particles: Chl small [4] |
| --- | --- | --- | --- | --- | --- |
| Inter-alpha-trypsin inhibitor heavy chain H4 (protein) EKNGIDIYSLTVDSRVSSRFAHTVVTSRVVNRANTVQEATFQMELPKKAFITNFSMIIDGMTYPGIIKEKAEAQAQYSAAVAKGKSAGLVKATGRNMEQFQVSVSVAPNAKITFELVYEELLKRRLGVYELLLKVRPQQLVKHLQMDIHIFEPQGISFLETESTFMTNQLVDALTTWQNKTKAHIRFKPTLSQQQKSPEQQETVLDGNLIIRYDVDRAISGGSIQIENGYFVHYFAPEGLTTMPKNVVFVIDKSGSMSGRKIQQTREALIKILDDLSPRDQFNLIVFSTEATQWRPSLVPASAENVNKARSFAAGIQALGGTNINDAMLMAVQLLDSSNQEERLPEGSVSLIILLTDGDPTVGETNPRSIQNNVREAVSGRYSLFCLGFGFDVSYAFLEKLALDNGGLARRIHEDSDSALQLQDFYQEVANPLLTAVTFEYPSNAVEEVTQNNFRLLFKGSEMVVAGKLQDRGPDVLTATVSGKLPTQNITFQTESSVAEQEAEFQSPKYIFHNFMERLWAYLTIQQLLEQTVSASDADQQALRNQALNLSLAYSFVTPLTSMVVTKPDDQEQSQVAEKPMEGESRNRNVHSGSTFFKYYLQGAKIPKPEASFSPRRGWNRQAGAAGSRMNFRPGVLSSRQLGLPGPPDVPDHAAYHPFRRLAILPASAPPATSNPDPAVSRVMNMKIEETTMTTQTPAPIQAPSAILPLPGQSVERLCVDPRHRQGPVNLLSDPEQGVEVTGQYEREKAGFSWIEVTFKNPLVWVHASPEHVVVTRNRRSSAYKWKETLFSVMPGLKMTMDKTGLLLLSDPDKVTIGLLFWDGRGEGLRLLLRDTDRFSSHVGGTLGQFYQEVLWGSPAASDDGRRTLRVQGNDHSATRERRLDYQEGPPGVEISCWSVEL | 15 | 2 | 12 | 20 | 13 |
| Alpha-1-antichymotrypsin (protein) HPNSPLDEENLTQENQDRGTHVDLGLASANVDFAFSLYKQLVLKAPDKNVIFSPLSISTALAFLSLGAHNTTLTEILKGLKFNLTETSEAEIHQSFQHLLRTLNQSSDELQLSMGNAMFVKEQLSLLDRFTEDAKRLYGSEAFATDFQDSAAAKKLINDYVKNGTRGKITDLIKDLDSQTMMVLVNYIFFKAKWEMPFDPQDTHQSRFYLSKKKWVMVPMMSLHHLTIPYFRDEELSCTVVELKYTGNASALFILPDQDKMEEVEAMLLPETLKRWRDSLEFREIGELYLPKFSISRDYNLNDILLQLGIEEAFTSKADLSGITGARNLAVSQVVHKAVLDVFEEGTEASAATAVKITLLSALVETRTIVRFNRPFLMIIVPTDTQNIFFMSKVTNPKQA | 16 | 11 | 20 | 14 | 11 |
| Isoform 2 of Inter-alpha-trypsin inhibitor heavy chain H4 (protein) EKNGIDIYSLTVDSRVSSRFAHTVVTSRVVNRANTVQEATFQMELPKKAFITNFSMIIDGMTYPGIIKEKAEAQAQYSAAVAKGKSAGLVKATGRNMEQFQVSVSVAPNAKITFELVYEELLKRRLGVYELLLKVRPQQLVKHLQMDIHIFEPQGISFLETESTFMTNQLVDALTTWQNKTKAHIRFKPTLSQQQKSPEQQETVLDGNLIIRYDVDRAISGGSIQIENGYFVHYFAPEGLTTMPKNVVFVIDKSGSMSGRKIQQTREALIKILDDLSPRDQFNLIVFSTEATQWRPSLVPASAENVNKARSFAAGIQALGGTNINDAMLMAVQLLDSSNQEERLPEGSVSLIILLTDGDPTVGETNPRSIQNNVREAVSGRYSLFCLGFGFDVSYAFLEKLALDNGGLARRIHEDSDSALQLQDFYQEVANPLLTAVTFEYPSNAVEEVTQNNFRLLFKGSEMVVAGKLQDRGPDVLTATVSGKLPTQNITFQTESSVAEQEAEFQSPKYIFHNFMERLWAYLTIQQLLEQTVSASDADQQALRNQALNLSLAYSFVTPLTSMVVTKPDDQEQSQVAEKPMEGESRNRNVHSAGAAGSRMNFRPGVLSSRQLGLPGPPDVPDHAAYHPFRRLAILPASAPPATSNPDPAVSRVMNMKIEETTMTTQTPACPSCSRSRAPAVPAPIQAPSAILPLPGQSVERLCVDPRHRQGPVNLLSDPEQGVEVTGQYEREKAGFSWIEVTFKNPLVWVHASPEHVVVTRNRRSSAYKWKETLFSVMPGLKMTMDKTGLLLLSDPDKVTIGLLFWDGRGEGLRLLLRDTDRFSSHVGGTLGQFYQEVLWGSPAASDDGRRTLRVQGNDHSATRERRLDYQEGPPGVEISCWSVEL | 15 | 2 | 12 | 20 | 13 |
| Inter-alpha-trypsin inhibitor heavy chain H2 (protein) SLPGESEEMMEEVDQVTLYSYKVQSTITSRMATTMIQSKVVNNSPQPQNVVFDVQIPKGAFISNFSMTVDGKTFRSSIKEKTVGRALYAQARAKGKTAGLVRSSALDMENFRTEVNVLPGAKVQFELHYQEVKWRKLGSYEHRIYLQPGRLAKHLEVDVWVIEPQGLRFLHVPDTFEGHFDGVPVISKGQQKAHVSFKPTVAQQRICPNCRETAVDGELVVLYDVKREEKAGELEVFNGYFVHFFAPDNLDPIPKNILFVIDVSGSMWGVKMKQTVEAMKTILDDLRAEDHFSVIDFNQNIRTWRNDLISATKTQVADAKRYIEKIQPSGGTNINEALLRAIFILNEANNLGLLDPNSVSLIILVSDGDPTVGELKLSKIQKNVKENIQDNISLFSLGMGFDVDYDFLKRLSNENHGIAQRIYGNQDTSSQLKKFYNQVSTPLLRNVQFNYPHTSVTDVTQNNFHNYFGGSEIVVAGKFDPAKLDQIESVITATSANTQLVLETLAQMDDLQDFLSKDKHADPDFTRKLWAYLTINQLLAERSLAPTAAAKRRITRSILQMSLDHHIVTPLTSLVIENEAGDERMLADAPPQDPSCCSGALYYGSKVVPDSTPSWANPSPTPVISMLAQGSQVLESTPPPHVMRVEND | 14 | 9 | 13 | 10 | 12 |
